Measured values: PMC11059408, “Atypical heat shock transcription factor HSF5 is critical for male meiotic prophase under non-stress conditions” (Nature Communications, 2023)

Legend:
[1] = biological target: the molecule itself; assay: SEC-MALS; after heat treatment at 42 °C for 30 min; 100 μL of MBP-full length HSF5 (12.6 μM) or HSF5-DBD (26.6 μM) injected; PROTEIN KW-803 column; 25 mM HEPES/KOH pH 7.2, 150 mM KCl
[2] = biological target: T1, HSF5 N-terminal protein (HSF5-DBD) (Mus musculus, UniProt Q5ND04 1-209); assay: EMSA; 0.04 pmol probe, protein/DNA molar ratio 15.6-250; three shifted bands; 20 mM Tris-HCl pH 8.0, 100 mM NaCl, 2 mM MgCl2, 10 ul, 25 C, 10 min; 8% polyacrylamide gel in Tris-borate pH 8.3, 2 mM EDTA; conditions: protein: recombinant; tags: His (pET19b, E. coli; Ni-NTA purified); label: 32P (Klenow, [a-32P]dCTP); 5' overhang 3 nt (AGG) on both strands before Klenow labelling
T1 sequence: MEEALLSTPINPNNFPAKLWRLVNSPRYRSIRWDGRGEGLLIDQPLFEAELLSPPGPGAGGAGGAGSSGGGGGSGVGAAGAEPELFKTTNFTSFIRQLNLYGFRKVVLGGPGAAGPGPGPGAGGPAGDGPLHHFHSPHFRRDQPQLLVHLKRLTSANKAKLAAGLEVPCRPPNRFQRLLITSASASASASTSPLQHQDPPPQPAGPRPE

[3] = biological target: T1, HSF5 N-terminal protein (HSF5-DBD); assay: competition; 1 uM protein, 0.04 pmol labeled T probe, 1-125 fold excess competitor; 20 mM Tris-HCl pH 8.0, 100 mM NaCl, 2 mM MgCl2, 10 ul, 25 C, 10 min; 8% polyacrylamide gel in Tris-borate pH 8.3, 2 mM EDTA; conditions: protein: recombinant; tags: His (pET19b, E. coli; Ni-NTA purified); 5' overhang 3 nt (AGG) on both strands
[4] = biological target: T1, HSF5 N-terminal protein (HSF5-DBD); assay: EMSA; 0.04 pmol probe, protein/DNA molar ratio 15.6-250; shifts completely abolished; 20 mM Tris-HCl pH 8.0, 100 mM NaCl, 2 mM MgCl2, 10 ul, 25 C, 10 min; 8% polyacrylamide gel in Tris-borate pH 8.3, 2 mM EDTA; conditions: protein: recombinant; tags: His (pET19b, E. coli; Ni-NTA purified); label: 32P (Klenow, [a-32P]dCTP); 5' overhang 3 nt (AGG) on both strands before Klenow labelling
[5] = biological target: T1, HSF5 N-terminal protein (HSF5-DBD); assay: competition; 1 uM protein, 0.04 pmol labeled T probe, 1-125 fold excess competitor; did not compete; 20 mM Tris-HCl pH 8.0, 100 mM NaCl, 2 mM MgCl2, 10 ul, 25 C, 10 min; 8% polyacrylamide gel in Tris-borate pH 8.3, 2 mM EDTA; conditions: protein: recombinant; tags: His (pET19b, E. coli; Ni-NTA purified); 5' overhang 3 nt (AGG) on both strands

B1: His-MBP-fused full-length HSF5 protein (natural protein, mouse, UniProt Q5ND04 1-624, looked up)
chain: MEEALLSTPINPNNFPAKLWRLVNSPRYRSIRWDGRGEGLLIDQPLFEAELLSPPGPGAGGAGGAGSSGGGGGSGVGAAGAEPELFKTTNFTSFIRQLNLYGFRKVVLGGPGAAGPGPGPGAGGPAGDGPLHHFHSPHFRRDQPQLLVHLKRLTSANKAKLAAGLEVPCRPPNRFQRLLITSASASASASTSPLQHQDPPPQPAGPRPEQHGPVAVGQFHRSFRRDNLSPYSYVSTSSHNHSAFPLKGLDRTPIPPRTWQNSLGMHPGQVETSPTFSDKGVPFPVLQRFPTEVTYTLQPSATSVHVQQGPQTMVSSSQKYSNYTPSAQYSQAYYPTAVLQCCSPPTHMDALSSCVTPTASSYAHCNYFQNPPMQSSYPVEFLPSNWPCSATDENKKTEVNLEAVFQIVDELHSSPKLEMVKVEPVETQCPSSQANRGQHILPNANSSNPSSTSQASQLEPLTPVGSDITSFVVGTEQAITCSLPQSPEYIYTIHTAQPLENSTMQESATIQQTHVKLKEQLNHNPSPSSVVFVQEGLPFSTPQVDSSIKCQTNPSENILPSEQMGFLISEMGPANKSTKDTGLSTPARYRERRSNSQGKSPDLHLLVDVACKQEHFPKEEELKE
notes: Heat shock transcription factor 5 (HSF5), mouse, full length; A tobacco etch virus protease cleavage site lies between His6-MBP and HSF5; the fusion was not cleaved for SEC-MALS; also called MBP-full length HSF5; His-MBP-full length HSF5; source: pMAL-c6T construct, purified (HisTrap HP, gel filtration on Superdex 200 pg 16/600); not shown: His6, N-terminal, kept; MBP, N-terminal, kept
B1: binds [1].

B2: HSF5-EMSA target (T) probe (dsDNA)
DNA 1: AGGGCATAGATATGGAACTCTCTTAGAACTCTCTTAGAACTTACTACTG
DNA 2: AGGCAGTAGTAAGTTCTAAGAGAGTTCTAAGAGAGTTCCATATCTATGC
B2: binds [2].

B3: unlabeled target (T) competitor (dsDNA)
DNA 1: AGGGCATAGATATGGAACTCTCTTAGAACTCTCTTAGAACTTACTACTG
DNA 2: AGGCAGTAGTAAGTTCTAAGAGAGTTCTAAGAGAGTTCCATATCTATGC
B3: binds [3].

B4: HSF5-EMSA mutant (M) probe (dsDNA)
DNA 1: AGGGCATAGATAACCTTGAGTCTATCTTGAGTCTATCTTGAAACTACTG
DNA 2: AGGCAGTAGTTTCAAGATAGACTCAAGATAGACTCAAGGTTATCTATGC
B4: no binding [4].

B5: unlabeled mutant (M) competitor (dsDNA)
DNA 1: AGGGCATAGATAACCTTGAGTCTATCTTGAGTCTATCTTGAAACTACTG
DNA 2: AGGCAGTAGTTTCAAGATAGACTCAAGATAGACTCAAGGTTATCTATGC
B5: no binding [5].
